# According to article PMC11316719, “Unveiling the importance of the C-terminus in the sugar acid dehydratase of the IlvD/EDD superfamily” (Applied Microbiology and Biotechnology, 2024):
# Residue numbers refer to the chain shown, from its start. In names and notes the source's numbering stands.
# B1: RlArDHT (L-arabinonate dehydratase from Rhizobium leguminosarum bv. trifolii) (Rhizobium leguminosarum bv. trifolii WSM2304) (protein)
# chain: MKKKAEWPRKLRSQEWYGGTSRDVIYHRGWLKNQGYPHDLFDGRPVIGILNTWSDMTPCNGHLRELAEKVKAGVWEAGGFPLEVPVFSASENTFRPTAMMYRNLAALAVEEAIRGQPMDGCVLLVGCDKTTPSLLMGAASCDLPSIVVTGGPMLNGYFRGERVGSGTHLWKFSEMVKAGEMTQAEFLEAEASMSRSSGTCNTMGTASTMASMAEALGMALSGNAAIPGVDSRRKVMAQLTGRRIVQMVKDDLKPSEIMTKQAFENAIRTNAAIGGSTNAVIHLLAIAGRVGIDLSLDDWDRCGRDVPTIVNLMPSGKYLMEEFFYAGGLPVVLKRLGEAGLLHKDALTVSGETVWDEVKDVVNWNEDVILPAEKALTSSGGIVVLRGNLAPKGAVLKPSAASPHLLVHKGRAVVFEDIDDYKAKINDDNLDIDENCIMVMKNCGPKGYPGMAEVGNMGLPPKVLKKGILDMVRISDARMSGTAYGTVVLHTSPEAAVGGPLAVVKNGDMIELDVPNRRLHLDISDEELARRLAEWQPNHDLPTSGYAFLHQQHVEGADTGADLDFLKGCRGNAVGKDSH
# notes: full length with N-terminal Strep-tag II (WSHPQFEK), codon-optimized, pBAT4, E. coli BL21(DE3); 579 residues without tag; [2Fe-2S] and Mg2+; homotetramer
# B2: RlArDHT (L-arabinonate dehydratase from Rhizobium leguminosarum bv. trifolii) (Rhizobium leguminosarum bv. trifolii WSM2304; H579L) (protein)
# chain: B1 chain with H579L
# notes: as for B1
# B3: L-arabinonate dehydratase from Rhizobium leguminosarum bv. trifolii, variant H579L (enzyme, UniProt B5ZZ34 1-579, looked up)
# chain: B1 chain with H579L
# modifications: KCX129 (6N-carboxylysine)
# notes: L-arabinonate dehydratase (RlArDHT) from Rhizobium leguminosarum bv. trifolii, gene araD, GenBank KT260159, codon-optimised synthetic gene; His579 is the last C-terminal residue, changed to Leu; Holds a [2Fe-2S] cluster and Mg2+ in each chain; co-crystallised with 2-oxobutyrate (seen in chain D only); The introduction calls the same variant H588L, which may count the N-terminal tag residues; also …
# Experiments:
# [1] = target: T1, RlArDHT (L-arabinonate dehydratase from Rhizobium leguminosarum bv. trifolii) (Rhizobium leguminosarum, UniProt B5ZZ34, H579L); assay: X-ray crystal structure, […] Å, co-crystallized; format: binding; details: product analog; active site of chain D, coordinated to Mg2+; [2Fe-2S] present; pH 8.5, 20 °C
# T1 construct: gene araD; full length with N-terminal Strep-tag II (WSHPQFEK), codon-optimized, pBAT4, E. coli BL21(DE3); 579 residues without tag; [2Fe-2S] and Mg2+; homotetramer
# T1 sequence (B5ZZ34 whole entry H579L): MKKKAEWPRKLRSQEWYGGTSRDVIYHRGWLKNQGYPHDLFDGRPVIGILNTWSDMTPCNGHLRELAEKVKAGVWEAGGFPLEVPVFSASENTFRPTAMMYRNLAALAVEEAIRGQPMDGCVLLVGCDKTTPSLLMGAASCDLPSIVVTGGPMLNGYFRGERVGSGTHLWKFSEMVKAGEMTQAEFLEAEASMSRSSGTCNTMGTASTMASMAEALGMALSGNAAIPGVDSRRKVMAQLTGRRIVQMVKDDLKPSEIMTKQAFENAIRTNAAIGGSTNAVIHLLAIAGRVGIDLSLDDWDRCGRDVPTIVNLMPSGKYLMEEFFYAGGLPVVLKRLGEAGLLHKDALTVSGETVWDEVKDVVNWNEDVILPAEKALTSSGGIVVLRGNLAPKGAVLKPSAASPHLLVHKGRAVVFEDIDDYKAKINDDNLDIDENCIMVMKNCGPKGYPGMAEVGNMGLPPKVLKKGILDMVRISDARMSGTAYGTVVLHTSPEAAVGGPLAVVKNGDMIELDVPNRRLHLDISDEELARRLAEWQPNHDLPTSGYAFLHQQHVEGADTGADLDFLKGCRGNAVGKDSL
# purified protein [2] = substrate: O=C(O)[C@H](O)[C@@H](O)[C@@H](O)CO; assay: purified protein; format: biochemical, Rhizobium leguminosarum; details: pH 8.0, 30 °C, 50 mM Tris-HCl, 10 mM MgCl2
# purified protein [3] = substrate: O=C(O)[C@H](O)[C@@H](O)[C@H](O)CO; assay: purified protein; format: biochemical, Rhizobium leguminosarum; details: pH 8.0, 30 °C, 50 mM Tris-HCl, 10 mM MgCl2
# purified protein [4] = substrate: O=C(O)[C@H](O)[C@@H](O)[C@H](O)[C@H](O)CO; assay: purified protein; format: biochemical, Rhizobium leguminosarum; details: pH 8.0, 30 °C, 50 mM Tris-HCl, 10 mM MgCl2
# purified protein [5] = substrate: O=C(O)[C@H](O)[C@@H](O)[C@@H](O)[C@H](O)CO; assay: purified protein; format: biochemical, Rhizobium leguminosarum; details: pH 8.0, 30 °C, 50 mM Tris-HCl, 10 mM MgCl2
# purified protein [6] = substrate: C[C@@H](O)[C@H](O)[C@H](O)[C@@H](O)C(=O)O; assay: purified protein; format: biochemical, Rhizobium leguminosarum; details: pH 8.0, 30 °C, 50 mM Tris-HCl, 10 mM MgCl2
# [7] = target: the molecule itself; assay: crystal structure; H579L co-crystallised with 2-oxobutyrate, hanging-drop vapor diffusion at 20 °C; 14% (w/v) PEG 10000, 200 mM ammonium acetate, 100 mM Tris pH 8.5; molecular replacement with PDB 5J84
Molecule,"X-ray crystal structure, 2.4 Å, co-crystallized [1]",Km (purified protein [2]),kcat (purified protein [2]),kcat/Km (purified protein [2]),Km (purified protein [3]),kcat (purified protein [3]),kcat/Km (purified protein [3]),Km (purified protein [4]),kcat (purified protein [4]),kcat/Km (purified protein [4]),Km (purified protein [5]),kcat (purified protein [5]),kcat/Km (purified protein [5]),Km (purified protein [6]),kcat (purified protein [6]),kcat/Km (purified protein [6]),stoichiometry N [7]
CCC(=O)C(=O)O [2-oxobutyrate],2-Oxobutyrate was refined inside the substrate-binding cavity in chain D of the H579L variant,,,,,,,,,,,,,,,,
B1,,1200 ± 200 µM,11.3 ± 0.5 s⁻¹,9500 ± 1170 M⁻¹ s⁻¹,1300 ± 300 µM,0.413 ± 0.0217 s⁻¹,317 ± 66.7 M⁻¹ s⁻¹,5700 ± 1500 µM,6.5 ± 0.833 s⁻¹,1130 ± 150 M⁻¹ s⁻¹,740 ± 150 µM,11.5 ± 0.5 s⁻¹,15500 ± 2330 M⁻¹ s⁻¹,240 ± 70 µM,17.5 ± 1 s⁻¹,73300 ± 18300 M⁻¹ s⁻¹,
B2,,1000 ± 200 µM,2 ± 0.0833 s⁻¹,2000 ± 333 M⁻¹ s⁻¹,1200 ± 200 µM,0.107 ± 0.00333 s⁻¹,88.3 ± 11.7 M⁻¹ s⁻¹,5400 ± 900 µM,0.667 ± 0.05 s⁻¹,125 ± 11.7 M⁻¹ s⁻¹,900 ± 150 µM,1.48 ± 0.0667 s⁻¹,1580 ± 183 M⁻¹ s⁻¹,820 ± 60 µM,21.5 ± 0.5 s⁻¹,26200 ± 1330 M⁻¹ s⁻¹,
B3,,,,,,,,,,,,,,,,,4
